Assay [1] addresses TgVps29-cMyc (Toxoplasma gondii). Description: affinity purification with mass spectrometry; absolute quantification of TgVps35, TgVps26 and TgVps29 in the immunoprecipitates by microLC-SRM with stable isotope-labelled standard peptides, three proteotypic peptides per protein.
The target of assay [2] is TgVps26-HA (Toxoplasma gondii). Described as above.

These results are taken from publication PMC4831018.

With TgVps35-HA (natural protein), the stoichiometry N (TgVps35 per TgVps29) in assay [1] was 3. The substance also gave a stoichiometry N (TgVps35 per TgVps26) in assay [2] of 1.
